Measurements published in IntAct's records for PubMed 16682949.

B1: Nuclear distribution protein nudE homolog 1 (Homo sapiens), Q9NXR1 (parent)
chain: MEDSGKTFSSEEEEANYWKDLAMTYKQRAENTQEELREFQEGSREYEAELETQLQQIETRNRDLLSENNRLRMELETIKEKFEVQHSEGYRQISALEDDLAQTKAIKDQLQKYIRELEQANDDLERAKRATIMSLEDFEQRLNQAIERNAFLESELDEKENLLESVQRLKDEARDLRQELAVQQKQEKPRTPMPSSVEAERTDTAVQATGSVPSTPIAHRGPSSSLNTPGSFRRGLDDSTGGTPLTPAARISALNIVGDLLRKVGALESKLASCRNLVYDQSPNRTGGPASGRSSKNRDGGERRPSSTSVPLGDKGLDTSCRWLSKSTTRSSSSC
partner: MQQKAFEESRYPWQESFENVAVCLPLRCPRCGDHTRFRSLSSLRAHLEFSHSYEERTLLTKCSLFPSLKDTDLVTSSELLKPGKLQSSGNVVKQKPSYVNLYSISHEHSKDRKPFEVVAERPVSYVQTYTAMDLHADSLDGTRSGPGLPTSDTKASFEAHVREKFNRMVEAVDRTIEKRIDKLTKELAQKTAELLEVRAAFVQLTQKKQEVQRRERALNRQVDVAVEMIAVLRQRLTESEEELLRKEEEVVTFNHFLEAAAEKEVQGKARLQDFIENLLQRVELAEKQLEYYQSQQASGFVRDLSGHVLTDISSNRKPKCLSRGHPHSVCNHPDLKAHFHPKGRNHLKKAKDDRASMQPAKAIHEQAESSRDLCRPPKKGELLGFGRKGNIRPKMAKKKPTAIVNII
B2: Nuclear distribution protein nudE homolog 1 (Homo sapiens), Q9NXR1 (parent)
chain: B1 chain

Variants of: B1
Details: with zn365_human ZNF365, Q70YC5

Variant | effect of a mutation on the interaction
MEDSGKTFSSEEEEANYWKDLAMTYKQRAENTQEELREFQEGSREYEAELETQLQQIETRNRDLLSENNRLRMELETIKEKFEVQHSEGYRQISALEDDLAQTKAIKDQLQKYIRELEQANDDLERAKRATIMSLEDFEQRLNQAIERNAFLESELDEKENLLESVQRLKDEARDLRQELAVQQKQEKPREPMPSSVEAERTDTAVQATGSVPSEPIAHRGPSSSLNEPGSFRRGLDDSTGGEPLEPAARISALNIVGDLLRKVGALESKLASCRNLVYDQEPNRTGGPASGRSSKNRDGGERRPSSTSVPLGDKGLDTSCRWLSKSTTRSSSSC [T191E;T215E;T228E;T243E;T246E;S282E] | decreasing interaction

Variants of: B1
Details: with zn365_human ZNF365, Q70YC5
Remark: another data set of the same source

Variant | effect of a mutation on the interaction
MEDSGKTFSSEEEEANYWKDLAMTYKQRAENTQEELREFQEGSREYEAELETQLQQIETRNRDLLSENNRLRMELETIKEKFEVQHSEGYRQISALEDDLAQTKAIKDQLQKYIRELEQANDDLERAKRATIMSLEDFEQRLNQAIERNAFLESELDEKENLLESVQRLKDEARDLRQELAVQQKQEKPREPMPSSVEAERTDTAVQATGSVPSEPIAHRGPSSSLNEPGSFRRGLDDSTGGEPLEPAARISALNIVGDLLRKVGALESKLASCRNLVYDQEPNRTGGPASGRSSKNRDGGERRPSSTSVPLGDKGLDTSCRWLSKSTTRSSSSC [T191E;T215E;T228E;T243E;T246E;S282E] | decreasing interaction

Variants of: B2
Details: with cdk1_human CDK1, P06493
cdk1_human CDK1, P06493, sequence (P06493 whole entry, looked up): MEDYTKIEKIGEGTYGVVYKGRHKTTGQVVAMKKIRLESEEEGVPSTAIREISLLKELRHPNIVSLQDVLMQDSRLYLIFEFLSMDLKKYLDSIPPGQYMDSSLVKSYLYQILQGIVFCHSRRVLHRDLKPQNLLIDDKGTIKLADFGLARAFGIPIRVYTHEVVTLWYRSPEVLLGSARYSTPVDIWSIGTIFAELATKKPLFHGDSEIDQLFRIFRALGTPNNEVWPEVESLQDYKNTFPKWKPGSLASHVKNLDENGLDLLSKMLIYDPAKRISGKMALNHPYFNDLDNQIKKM

Variant | effect of a mutation on the interaction
MEDSGKTFSSEEEEANYWKDLAMTYKQRAENTQEELREFQEGSREYEAELETQLQQIETRNRDLLSENNRLRMELETIKEKFEVQHSEGYRQISALEDDLAQTKAIKDQLQKYIRELEQANDDLERAKRATIMSLEDFEQRLNQAIERNAFLESELDEKENLLESVQRLKDEARDLRQELAVQQKQEKPRVPMPSSVEAERTDTAVQATGSVPSVPIAHRGPSSSLNVPGSFRRGLDDSTGGVPLVPAARISALNIVGDLLRKVGALESKLASCRNLVYDQVPNRTGGPASGRSSKNRDGGERRPSSTSVPLGDKGLDTSCRWLSKSTTRSSSSC [T191V;T215V;T228V;T243V;T246V;S282V] | decreasing interaction
